Reference: patent US20260125472A1 (HEFEI TG IMMUNOPHARMA, published 2026)
Positions count from the first letter of the chain named.

B1: Cross308×PDL1 (bispecific antibody, human IgG1, kappa, L234A L235A)
scFv: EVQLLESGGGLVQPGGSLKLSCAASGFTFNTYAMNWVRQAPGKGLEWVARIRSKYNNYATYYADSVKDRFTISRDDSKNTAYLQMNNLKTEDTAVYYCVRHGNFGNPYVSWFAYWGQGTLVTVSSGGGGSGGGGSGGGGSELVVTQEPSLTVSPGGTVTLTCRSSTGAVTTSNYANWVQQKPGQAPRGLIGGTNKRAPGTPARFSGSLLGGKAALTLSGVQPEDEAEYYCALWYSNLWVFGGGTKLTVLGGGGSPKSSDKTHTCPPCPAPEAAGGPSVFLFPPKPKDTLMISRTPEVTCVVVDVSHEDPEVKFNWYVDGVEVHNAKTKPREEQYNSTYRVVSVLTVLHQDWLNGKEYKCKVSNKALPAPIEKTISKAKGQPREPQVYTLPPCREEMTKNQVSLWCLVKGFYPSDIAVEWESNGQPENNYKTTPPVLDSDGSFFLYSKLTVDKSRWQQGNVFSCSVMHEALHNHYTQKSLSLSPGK
heavy: QVQLVQSGAEVKKPGASVKVSCKASGYSFTGYYMHWVRQAPGQGLEWIGRINPYNGATTYSQNFKDRATMTVDTSISTAYMELSRLRSDDTAVYYCVPTGMGYFLMDYWGQGTLVTVSSASTKGPSVFPLAPSSKSTSGGTAALGCLVKDYFPEPVTVSWNSGALTSGVHTFPAVLQSSGLYSLSSVVTVPSSSLGTQTYICNVNHKPSNTKVDKKVEPKSCDKTHTCPPCPAPEAAGGPSVFLFPPKPKDTLMISRTPEVTCVVVDVSHEDPEVKFNWYVDGVEVHNAKTKPREEQYNSTYRVVSVLTVLHQDWLNGKEYKCKVSNKALPAPIEKTISKAKGQPREPQVCTLPPSREEMTKNQVSLSCAVKGFYPSDIAVEWESNGQPENNYKTTPPVLDSDGSFFLVSKLTVDKSRWQQGNVFSCSVMHEALHNHYTQKSLSLSPGK
light: DIQLTQSPSFLSASVGDRVTITCKASQDVGSAVVWYQQKPGKAPKLLIYWASTRHTGVPSRFSGSGSGTEFTLTISSLQPEDFATYFCQQFTSYPTFGQGTKLEIKRTVAAPSVFIFPPSDEQLKSGTASVVCLLNNFYPREAKVQWKVDNALQSGNSQESVTEQDSKDSTYSLSSTLTLSKADYEKHKVYACEVTHQGLSSPVTKSFNRGEC
B2: Cross311×PDL1 (bispecific antibody, human IgG1, kappa, L234A L235A)
scFv: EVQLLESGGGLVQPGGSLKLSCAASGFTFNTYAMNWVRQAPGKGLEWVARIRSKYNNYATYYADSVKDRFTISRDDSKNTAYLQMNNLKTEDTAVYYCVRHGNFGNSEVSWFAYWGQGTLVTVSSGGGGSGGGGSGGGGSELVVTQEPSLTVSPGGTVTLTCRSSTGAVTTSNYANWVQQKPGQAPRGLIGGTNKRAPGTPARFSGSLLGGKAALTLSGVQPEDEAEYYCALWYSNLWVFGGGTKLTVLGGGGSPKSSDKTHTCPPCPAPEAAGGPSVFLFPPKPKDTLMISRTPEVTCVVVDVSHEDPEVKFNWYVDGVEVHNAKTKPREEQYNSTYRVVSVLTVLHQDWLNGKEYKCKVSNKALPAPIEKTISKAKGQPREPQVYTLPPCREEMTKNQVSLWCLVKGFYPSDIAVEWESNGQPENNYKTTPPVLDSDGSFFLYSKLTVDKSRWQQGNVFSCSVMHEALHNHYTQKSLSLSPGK
heavy: B1 heavy
light: B1 light
B3: Cross312×PDL1 (bispecific antibody, human IgG1, kappa, L234A L235A)
scFv: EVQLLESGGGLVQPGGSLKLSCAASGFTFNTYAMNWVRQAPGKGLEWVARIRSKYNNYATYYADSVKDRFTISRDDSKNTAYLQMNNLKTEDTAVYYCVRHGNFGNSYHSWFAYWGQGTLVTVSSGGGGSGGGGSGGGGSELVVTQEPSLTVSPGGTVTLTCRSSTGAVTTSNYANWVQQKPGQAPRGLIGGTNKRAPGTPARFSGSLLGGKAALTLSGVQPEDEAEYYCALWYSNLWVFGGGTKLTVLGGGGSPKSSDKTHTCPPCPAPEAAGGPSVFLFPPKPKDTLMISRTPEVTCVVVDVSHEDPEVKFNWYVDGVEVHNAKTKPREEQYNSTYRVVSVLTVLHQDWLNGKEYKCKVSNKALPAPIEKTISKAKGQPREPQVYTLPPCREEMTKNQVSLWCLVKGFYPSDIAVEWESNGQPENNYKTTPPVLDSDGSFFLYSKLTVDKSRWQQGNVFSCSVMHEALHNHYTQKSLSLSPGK
heavy: B1 heavy
light: B1 light
B4: Cross314×PDL1 (bispecific antibody, human IgG1, kappa, L234A L235A)
scFv: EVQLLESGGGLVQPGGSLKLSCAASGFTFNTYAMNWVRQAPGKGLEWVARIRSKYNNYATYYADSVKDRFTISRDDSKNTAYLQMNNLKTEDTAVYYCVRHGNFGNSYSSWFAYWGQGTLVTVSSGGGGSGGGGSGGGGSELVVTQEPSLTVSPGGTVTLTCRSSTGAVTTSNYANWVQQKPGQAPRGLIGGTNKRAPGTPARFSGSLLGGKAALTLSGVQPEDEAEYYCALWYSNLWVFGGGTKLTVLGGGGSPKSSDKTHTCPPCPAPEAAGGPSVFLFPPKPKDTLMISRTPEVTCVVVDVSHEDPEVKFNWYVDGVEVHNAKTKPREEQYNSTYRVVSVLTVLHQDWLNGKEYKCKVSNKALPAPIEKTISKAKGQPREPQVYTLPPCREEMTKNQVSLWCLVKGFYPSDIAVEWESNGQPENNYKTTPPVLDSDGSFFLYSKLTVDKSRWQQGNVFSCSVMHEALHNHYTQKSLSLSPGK
heavy: B1 heavy
light: B1 light
B5: Cross303 (antibody, human IgG1, kappa, V domains shown)
VH: EVQLLESGGGLVQPGGSLKLSCAASGFTFNTYAMNWVRQAPGKGLEWVARIRSKYNNYATYYADSVKDRFTISRDDSKNTAYLQMNNLKTEDTAVYYCVRHGMFGNSYVSWFAYWGQGTLVTVSS
VL: ELVVTQEPSLTVSPGGTVTLTCRSSTGAVTTSNYANWVQQKPGQAPRGLIGGTNKRAPGTPARFSGSLLGGKAALTLSGVQPEDEAEYYCALWYSNLWVFGGGTKLTVLR
B6: Cross307 (antibody, human IgG1, kappa, V domains shown)
VH: B5 VH with M103N, S107E
VL: B5 VL
B7: Cross316 (antibody, human IgG1, kappa, V domains shown)
VH: B5 VH with M103N, A113L
VL: B5 VL
B8: Cross312 (antibody, human IgG1, kappa, V domains shown)
VH: B5 VH with M103N, V109H
VL: B5 VL
B9: Cross313 (antibody, human IgG1, kappa, V domains shown)
VH: B5 VH with M103N, V109Q
VL: B5 VL
B10: Cross314 (antibody, human IgG1, kappa, V domains shown)
VH: B5 VH with M103N, V109S
VL: B5 VL
B11: Cross318 (antibody, human IgG1, kappa, V domains shown)
VH: B5 VH with M103N, Y114M
VL: B5 VL
B12: Cross311 (antibody, human IgG1, kappa, V domains shown)
VH: B5 VH with M103N, Y108E
VL: B5 VL

Each binder was assayed against T1, PDL1 on A-375 melanoma cells, HCT-15 colorectal cancer cells and A549 lung cancer cells (UniProt Q9NZQ7 19-290, limits assumed) (assay: flow cytometry, A549 cells, MFI [panel B]).
T1 construct: whole, on cells
T1 sequence (Q9NZQ7 19-290 limits assumed): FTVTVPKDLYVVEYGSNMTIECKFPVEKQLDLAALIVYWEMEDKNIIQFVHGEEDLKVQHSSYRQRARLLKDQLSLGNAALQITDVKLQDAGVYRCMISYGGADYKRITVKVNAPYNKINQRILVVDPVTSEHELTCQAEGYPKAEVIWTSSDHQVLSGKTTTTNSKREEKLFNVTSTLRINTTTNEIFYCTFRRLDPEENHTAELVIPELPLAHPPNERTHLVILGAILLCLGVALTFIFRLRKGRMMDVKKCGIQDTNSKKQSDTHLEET
Protocol: (2) The tumor cells were diluted to 2×10⁶/ml with PBS and added to a 1.5 ml EP tube at a volume of 100 μl/tube, and goat serum was added thereto at 10 μl/tube. The cells were blocked at 4° C. for 30 min. The serially diluted bispecific antibodies, Cross3×Trop2, Cross303×Trop2, Cross307×Trop2, Cross308×Trop2, Cross309×Trop2, Cross310×Trop2, Cross311×Trop2, Cross312×Trop2, Cross313×Trop2, Cross314×Trop2, Cross316×Trop2, Cross317×Trop2, Cross318×Trop2, Cross323×Trop2, Cross325×Trop2, Cross326×Trop2, and Cross3×PDL1, Cross303×PDL1, Cross307×PDL1, Cross308×PDL1, Cross309×PDL1, Cross310×PDL1, Cross311×PDL1, Cross312×PDL1, Cross313×PDL1, Cross314×PDL1, Cross316×PDL1, Cross317×PDL1, Cross318×PDL1, Cross323×PDL1, Cross325×PDL1, Cross326×PDL1, and control hIgG1LALA (purchased from Bio-Tech) were added and incubated at 4° C. for 30 min. 1 ml of PBS was added to the EP tube, followed by centrifugation at 3500 rpm for 5 min at 4° C. The supernatant was discarded, and the cells were washed again with PBS. After centrifugation, the supernatant was completely discarded, and the cells were resuspended with PBS at 100 μl/tube. Alexa-647-labeled goat anti-human IgG secondary antibody (purchased from Jackson lab) was added at 1 μl/tube and incubated at 4° C. in the dark for 30 min. The cells were washed twice with PBS, and the supernatant was completely discarded after centrifugation. The cells were resuspended with PBS at 200 μl/tube and assay was performed using the flow cytometry.

Row | EC50 (read off the curve) | Binder
1 | ~1 µg/mL | B1
2 | ~1 µg/mL | B2
3 | ~2 µg/mL | B3
4 | ~1 µg/mL | B4

The binders below were run against T2, PDL1 protein (UniProt Q9NZQ7 19-238) (assay: ELISA, coated PDL1 protein, OD450 [panel A]).
T2 construct: Bought recombinant protein
T2 sequence (Q9NZQ7 19-238 limits assumed): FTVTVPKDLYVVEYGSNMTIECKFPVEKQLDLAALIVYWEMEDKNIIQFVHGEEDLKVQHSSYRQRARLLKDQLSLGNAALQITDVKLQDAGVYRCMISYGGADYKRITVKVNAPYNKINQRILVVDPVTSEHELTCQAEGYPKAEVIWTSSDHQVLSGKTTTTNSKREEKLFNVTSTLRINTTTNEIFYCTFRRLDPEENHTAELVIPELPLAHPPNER
Protocol: (3) PDL1 protein (purchased from Acro) was diluted to 2 μg/ml with PBS buffer, added to a 96-well plate at a volume of 100 μL/well, and placed at 4° C. overnight. The PBS buffer in the 96-well plate was aspirated, and the plate was washed 6 times with PBST (pH 7.2 PBS containing 0.10% Tween 20) buffer. Then, PBS/10% BSA was added at 200 μL/well and incubated at 37° C. for 2 h for blocking. The blocking solution was removed, and the plate was washed six times with PBST. Then, the to-be-tested bispecific antibodies serially diluted with PBST/0.05% BSA, Cross3×PDL1, Cross303×PDL1, Cross307×PDL1, Cross308×PDL1, Cross309×PDL1, Cross310×PDL1, Cross311×PDL1, Cross312×PDL1, Cross313×PDL1, Cross314×PDL1, Cross316×PDL1, Cross317×PDL1, Cross318×PDL1, Cross323×PDL1, Cross325×PDL1, Cross326×PDL1, and control IgG1LALA (purchased from Bio-Tech) were added at 100 μL/well, and incubated at 37° C. for 1 h. The reaction system was removed, and the plate was washed 6 times with PBST. Then, the cells were incubated at 37° C. for 1 h with HRP (horseradish peroxidase)-labeled anti-human secondary antibody (Fab specific) (purchased from Sigma) serially diluted with PBST/0.05% BSA at 100 μL/well. After the plate was washed six times with PBST, TMB (tetramethylbenzidine) was added at 80 μL/well and incubated at room temperature for 3 min. 4 M sulfuric acid was added at 80 μL/well to terminate the reaction. The absorbance was read at 450 nm using a microplate reader.

Row | EC50 (read off the curve) | Binder
5 | ~0.2 µg/mL | B1
6 | ~0.2 µg/mL | B2
7 | ~0.2 µg/mL | B3
8 | ~0.2 µg/mL | B4

These binders were tested against T3, CD3E&D protein (UniProt P04234 22-105) (assay: ELISA, coated CD3E&D protein, OD450 [panel A]).
T3 construct: Purchased from Acro; also called CD3 E&D antigens; CD3E&D antigen protein
T3 sequence (chain, as listed by the source limits assumed, chain 1 of 2): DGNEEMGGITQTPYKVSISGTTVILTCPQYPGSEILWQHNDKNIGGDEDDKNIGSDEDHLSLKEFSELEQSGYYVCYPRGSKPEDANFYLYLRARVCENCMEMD
T3 sequence (P04234 22-105 limits assumed, chain 2 of 2): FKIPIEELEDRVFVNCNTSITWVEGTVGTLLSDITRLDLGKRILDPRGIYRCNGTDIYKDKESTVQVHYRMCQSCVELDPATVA
Protocol: (§1) In this example, the binding properties of the parental antibody Cross3 and the CD3 affinity-reduced antibody (the production method and the amino acid sequences of the heavy and light chains were shown in Example 1) were detected by ELISA. The CD3E&D protein was coated onto a 96-well plate by the inventors, and the strength of the signal after the addition of the antibody was used to determine the binding properties of the antibody and CD3E&D.
(§2) CD3E&D protein (purchased from Acro) was diluted to 2 μg/ml with PBS buffer, added to a 96-well plate at a volume of 100 μL/well, and placed at 4° C. overnight. The PBS buffer in the 96-well plate was aspirated, and the plate was washed 6 times with PBST (pH 7.2 PBS containing 0.1% Tween 20) buffer. Then, 200 μL/well PBS/10% BSA was added and incubated at 37° C. for 2 h for blocking. The blocking solution was removed, and the plate was washed six times with PBST. Then, the to-be-tested antibodies serially diluted with PBST/0.05% BSA, Cross3, Cross303, Cross307, Cross308, Cross309, Cross310, Cross311, Cross312, Cross313, Cross314, Cross316, Cross317, Cross318, Cross323, Cross325, Cross326, and control IgG1 (purchased from Bio-Tech) were added at 100 μL/well, and incubated at 37° C. for 1 h. The reaction system was removed, and the plate was washed 6 times with PBST. Then, the cells were incubated at 37° C. for 1 h with HRP (horseradish peroxidase)-labeled anti-human secondary antibody (Fab specific) (purchased from Sigma) serially diluted with PBST/0.05% BSA at 100 μL/well. The plate was washed six times with PBST, TMB (tetramethylbenzidine) was added at 80 μL/well and incubated at room temperature for 3 min. 4 M sulfuric acid was added at 80 μL/well to terminate the reaction. The absorbance was read at 450 nm using a microplate reader.

Row | EC50 (read off the curve) | Binder
9 | ~0.03 µg/mL | B5
10 | ~0.03 µg/mL | B6

These binders were tested against T3, CD3E&D protein (assay: ELISA, coated CD3E&D protein, OD450 [panel B]).
Protocol: as §1, §2

Row | EC50 (read off the curve) | Binder
11 | ~0.03 µg/mL | B7
12 | ~0.03 µg/mL | B8
13 | ~0.03 µg/mL | B9
14 | ~0.03 µg/mL | B10
15 | ~0.03 µg/mL | B11
16 | ~0.03 µg/mL | B12

These binders were tested against T4, CD3 on CD8 T cells (Homo sapiens (Human), UniProt P07766 23-207) (assay: flow cytometry, CD8 T cells in PBMCs, binding ratio % [panel A]).
T4 construct: Native CD3 complex on CD8 T cells among PBMCs; also called T cells (PBMCs gated with anti-human CD8 antibody)
T4 sequence (P07766 23-207 limits assumed): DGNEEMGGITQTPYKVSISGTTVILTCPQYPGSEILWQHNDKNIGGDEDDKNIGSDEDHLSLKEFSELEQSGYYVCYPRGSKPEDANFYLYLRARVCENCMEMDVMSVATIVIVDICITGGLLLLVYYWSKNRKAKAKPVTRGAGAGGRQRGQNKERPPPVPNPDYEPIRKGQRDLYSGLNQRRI
Protocol: PBMCs were diluted with PBS to 2×10⁶/mL and added to a 1.5 ml EP tube at a volume of 100 μL/tube, 10 μL/tube of goat serum was added thereto and incubated at 4° C. for 30 min for blocking. […] 1 mL of PBS was added to the EP tube, followed by centrifugation at 3500 rpm for 5 min at 4° C. The supernatant was discarded, and the cells were washed again with PBS. After centrifugation, the supernatant was discarded, and the cells were resuspended with 100 μl/tube PBS. 1 μl/tube Alexa-647-labeled goat anti-human secondary antibody (purchased from Jackson lab) and 0.5 μl/tube PerCP-Cy5.5-labeled anti-human CD8 antibody were added and incubated at 4° C. in the dark for 30 min. The cells were washed twice with PBS, and the supernatant was discarded after centrifugation. The cells were resuspended with […] of PBS and assayed using the flow cytometry.

Row | EC50 (read off the curve) | Binder
17 | ~0.3 µg/mL | B7
18 | ~0.3 µg/mL | B8
19 | ~0.3 µg/mL | B9
20 | ~0.4 µg/mL | B10
21 | ~0.3 µg/mL | B12

What follows are binders tested against T3, CD3E&D protein (assay: SPR (Biacore 8K), antibody on CM5 chip, CD3 E&D antigen as analyte).
Design: Fold change: reference not given here
Protocol: In a Biacore 8K (Cytiva) system, the antibody was diluted to 10 μg/mL in HBS-EP running buffer and coupled to a CM5 chip (Cytiva) at a flow rate of 10 μL/min.

Row | Fold change | Kd | koff | kon | Binder
22 | 12.7 | 2.09 nM | 0.0991 s⁻¹ | 4.75e+07 M⁻¹ s⁻¹ | B5
23 | 20.8 | 3.43 nM | 0.00249 s⁻¹ | 728000 M⁻¹ s⁻¹ | B7
24 | 21.2 | 3.5 nM | 0.0107 s⁻¹ | 3.05e+06 M⁻¹ s⁻¹ | B8
25 | 11.6 | 1.92 nM | 0.00567 s⁻¹ | 2.96e+06 M⁻¹ s⁻¹ | B9
26 | 26.5 | 4.37 nM | 0.00887 s⁻¹ | 2.03e+06 M⁻¹ s⁻¹ | B10
27 | 20.1 | 3.32 nM | 0.0056 s⁻¹ | 1.69e+06 M⁻¹ s⁻¹ | B11
28 | 21 | 3.47 nM | 0.00473 s⁻¹ | 1.36e+06 M⁻¹ s⁻¹ | B6
29 | 27.6 | 4.55 nM | 0.00959 s⁻¹ | 2.11e+06 M⁻¹ s⁻¹ | B12
